This passage reports Kd results from PMC8511952.

Experiment in all cases: fluorescence anisotropy
What all share (conditions): unmodified in vitro transcript; FA: 5 nM labeled tRNA, 25 mM Tris-HCl pH 8, 50 mM NaCl, 1 mM MgCl2, room temperature, 30 min

Series [1] concerns MBP-ERSRC E205G (Homo sapiens).
In series [2] the test system is MBP-ERS2.5W P14R (Homo sapiens).
The test system of series [3] is MBP-ERS2.5W E205G (Homo sapiens).

In the case of tRNAGlu(TTC), the results for the Kd in series [1], in series [2] and in series [3] were 277 nM, 94 nM and 54.3 nM, respectively.

Usually Kd stands for a measure of binding affinity in units of concentration. A high value points to weaker binding.
